Experimental data taken from the nanobody polyreactivity screen of Harvey et al. (2022).

Experiment: yeast display, Sf9 membrane polyspecificity reagent, FACS + sequencing; frameworks hold sequencing errors
Method in brief: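 Galactose induction of a Saccharomyces cerevisiae BJ5465 synthetic nanobody display library ran 36–48 hours. The cells were then stained for 1 hour at 4 °C with 10% biotinylated, detergent-solubilized Sf9 membrane reagent, pulled down on streptavidin microbeads and FACS-sorted into low and high (top ~1%) gates on expression and reagent-binding fluorescence. Labels for polyreactivity follow the gate of origin.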

Row | Sequence | polyreactivity (PSR sort gate)
1 | QVQLVESGGGLVQAGGSLRLSCAASGSIFVTYALGWYRQAPGKERELVAVLTWGGGSTYYADSVKGRFTISRDNAKNTVYLQMNSLKPEDTAVYYCAKDSYYYRRDVTVDYWGQGTQVTVSS | low polyreactivity
2 | QVQLVESGGGLVQAGGSLRLSCAASGTLATYAMGWYRQAPGKERELVAAIRYSDGRTYYADSVKGRFTISRDNAKNTFYLQMNSLKPEDTAVYYCAASFRGRGKKLDYWGQGTQVTVSS | low polyreactivity
3 | QVQLVESGGGLVQAGGSLRLSCAASGSIFAKYAMGWYRQAPGKEREFVAAIRASGGRTYYADSVKGRFTISRDNAKNTVYLQMNSLKPEDTAVYYCAAHLYSSRSDYDGPRSRRNYWGQGTQVTVSS | high polyreactivity
4 | QVQLVESGGGLVQAGGSLRLSCAASGSILYYNAMGWYRQAHGKEREFVASISLTGGSTTYADSVKGRFTISRDNAKNTVYLQMNSLKPEDTAVYYCNATHYPAADRSTNNYGGGFDYWGEGTQVTVSS | low polyreactivity
5 | QVQLVESGGGLVQAGGSLRLSCAASGRTFLYYAMGWYRQAPGKERELVAAISSGGSTNYADSVKGRFTISRDNAKNTVYLQMNSLKPEDTAVYYCNADYTSRDTSDVIYEYDYWGQGTQVTVSS | low polyreactivity
6 | QVQLEESGGGLVQAGGSLRLSCAASGRIFQYYDMGWYRPATGKERELVAGIRTNGSSTYYADSVKGRFTISRDNAKNTVYLQMNSLKPEDSAVYYCAARHYRYLRQYDYWGQGTQVTVSS | low polyreactivity
7 | QVQLVESGGGLVQAGGSLRLSCAASGFIFRDYVMGWYRQAPGKERELVAAISYRGGSTNYADSVKGRFTISRDNAKNTVYLQMNSLKPEDTAVYSCAADQVHKREYDYWGQGTQVTVSS | low polyreactivity
8 | QVQLVESGGGLVQAGGSLRLSCAASGRTFTLYAMGWSRPAPGKERELVAAIRWSGSSTYYADSVKGRFTISRDNSKNTVYLQMNSLKPEDTAVYYCAARAGRYDRYGYWGQGTQVTVSS | high polyreactivity
9 | QVQLVDSGGGLVQAGGSLRLSCAASGSTFVYNTMGWYSHAPGKERELVAAISYRGSTYYADSVKGRFTISRENAKNTVYLQMNSLKPEDTAVYYCNGPRRQYEYDFWGLGTQVTVSS | high polyreactivity
10 | QVQLVESGGGLVQAGGSLRLSCAASGRTLGRYAMGWYRQAPGKERELVAAINVGGGTTHYADSVKGRFTISRDNAKNTVYLQMNSLKPEDTAVYYCAASYRDGHIRHDYWGQGTQVTVSS | low polyreactivity
11 | QVQLVESGGGLVQAGGRLRLSCAASGIIFAWYAMGWSRQAPGKERELVAAITSGGSTYYADSVKGRFTISRDNAKNTVYLQMNSLKPDDTAVYYCAASDASTGYLGRHYYWGPGTQVTVSS | high polyreactivity
12 | QVQLVESGGGLVQAGGSRRLSCAASGSIFVKYAMGWYRQAPGKERELVAAKSQSGVRTYYADSVKGRFTISRDNAKNTVYLQMNSLTPEDTAVYYCAAYSGYYYWGQGTQVTVSS | high polyreactivity
13 | QVQLVESGGGLVQAGGSLRISCAASGSTLQYYAMGWYRQAPGKERELVAAISWRGARTYYADSVKGRFTISRDNAKNTVYLQMNSLKPQDTAVYYCAAVYGSRGYAGNYYWGHGTQVTVSS | high polyreactivity
14 | QVQLVESGGGLVKAGGSLRLSCAASGYTFGKYAMGWYRQAPGKERELVAAISWSGGSTYYADSVKGRFRISRDNAKNTVYLQMNSLKPEDTAVYYCNKGYFGRYGYWGQGTQVTVSS | high polyreactivity
15 | QVQLVESGGGLVQARGSLRLSSAAYGRTLYSYAMGWYRQAPGKERELVATIRRSGGSTNYADSVKGRFTISRDNAKNTVYLQMNSLKPEDTAVYYCAAVSFKPEYYYWGQGTQVTVSS | high polyreactivity
16 | QVQLVESGGGLVQAGGSLRLSCAASGFISDDYAMGWYRQAPGKERELVAAISDSGVDTYYADSVKGRFTISRDNAKNTVYLLMNSLKPEDTAVYYCATLTYASNRYGYWGQGTHVTVSS | low polyreactivity
17 | QVQLVESGGGLVQAGGSLRLSCAASGSIFYRNVMGWYRQAPGKERELVAAISQRGGSTYYADSVKGRFTISRDNAKNTVYLQMNSLKPEDTAVYYCIAASRGAGTSIWSWYDHWGQGTQVTVSS | low polyreactivity
18 | QVQLVESGGGLVQAGGSLRLSCAASGFIFIYNAMGWYRQAPGKERELVAAITGSDGGTFYADSVKGRFTISRDNAKNTVYLQMNSLKPEDTAVYYCNADNGSRQSRDGYESWGQGTQVTVSS | low polyreactivity
19 | QVQLVESGGGLVQAGGSLRLSCAASGYTFEPYAMGWYRQAPGKESELVAAISRGGTTNYADSVKGRFTISRDNAKNTVYLQINSLKPEDTAVYYCASSYFRRVFYSIYEYDYWGQGTQVTVSS | low polyreactivity
20 | QGQLVESGGGLVQAGGSLRLSCAASGNTFWYYAMGWYRQAPGKEREVVATISSSGGSTSYAHSVKGRFTISRDNAKNTVYLQMNSLKPVDTAVYYCAKPIRYFAAYPLTKGYYYWGQCTQVTVSS | high polyreactivity
21 | QVQVVESGGGLVQAGGSLRLSCAASGFTIFSYAMGWYRQAPGKERELVAAISRRGGSTYYADSVKGRFTISRDNAKNTVYLQMNSLKPEDTAVYYCNAKWTSHGTYAEDYWGQGTQVTVSS | high polyreactivity
22 | QVQLVESGGGLVQAGGSLRLSCAASGYIFRYNAMGWYRQAPGKEREFVASISQRGGSTYYADSVKGRFTISRDNAKNTVYLQMNSLKPEDTAVYYCAARLGYYSYEYNYWGQGTQVTVSS | high polyreactivity

Row | Sequence | polyreactivity (PSR sort gate)
23 | QVQLVESGGGLVQAGGSLRLSCAASGRTFAHNAMGWYRQAPGKERELVAAITWSGGTTYYADSVKGRFTISRDNAKNTVYLHMNSLKPEDTAVYYCNTYSYQPDPKYDYWGQGTQVTVSS | low polyreactivity
24 | QVQLVESGGGLVQAGGSLRLSCAASGRIFGTNAMGWYRQAPGTEMELDADITSGGSTNYADSVKGRFTISRDNAKNTVYLQMNSLKPEDTAVYYCAADVIGDLRWYREEYWGQGTQVTVSS | low polyreactivity
25 | QVQLVESGGGLVQAGCSLRLSCAASGSTLFWYDMGWYRQAPGKERELVAAINWTGGSTYADSVKGRFTISRDNAKNTVYLQMNSLKPEDTAVYYCNADEYWASGYDPYDYWGQGTQVTVSS | low polyreactivity
26 | QVQLVESGRGLVQAGGSLRLSCAASGSIFWYYAMGWYRPSPGKETELVAAIRRGGSTTYADSVKGRFTISRDNAKNTVYLQMNSLKPEDTAVYYCAAEPYYWYRGDYWGQGTQVTVSS | high polyreactivity
27 | QVQLVESGGGLVQAGGSLRLSCAASGSIFAYNTMGWYRQAPGKEREFVAAISWRGGSTYYADSVKGRFTISRDNAKNTVYLQMTSLKPEDTAVYYCNARYRNTFYTRRYDYWGQGTQVTVSS | high polyreactivity
28 | QVQLVESGGGLVQAGGSLRLSCAASGSIFPRYAMGWYRQAPGKERELVATISQSGGSTYYADSVKGRFTISRDSAKNTVYLQMNSLKPEDTAVYYCAAKVYRSAYYVGKYYPYYYWGQGTQVTVSS | high polyreactivity
29 | QVQLVETGGGLVQAGGSHSLSCAASVRTVSSYARGWCRQAPGTERELVARITWSGGTYYADSVKGRFTISRDNAKNTVYLQMNRLKPEDTSVYYCAKRSYYWEYYYWGQGTQVTVSS | high polyreactivity
30 | QVQLVESGGGLVQAGGSLRLSCAASGRTYRRYAMGWYRQAPGKERELVASISRTGGSTYYADAVKRRYTISRDNAKNTVYLQMNSLKPVDTAVYYCNAGPSVGWYNYWGQGTQVSVSS | high polyreactivity
31 | QVQLVESGGGLVQAGGSLRLSCAASGSTFVDYAMGWYRQAPGKERELVAAINERGGSTYYADSVKGRFTISRDNAKNTVYLQMNSLKPEDTAVYYCAKQLWVGVKYDYWGQGTQVTVSS | low polyreactivity
32 | QVQLVESGGGLVQAGGSLRLSCAASGIIFYKNVMGWYRQAPGKERELVAAINRSGGRTYYADSVKGRFTISRDNAKNTVYLQMNSLKPEDTAVYYCARSGTVFGRTYDYWGQGTQVTVSS | high polyreactivity
33 | QVQLVESGGGVVQAGGMLRLSCAASGTTFDVYAMGGYRQAPGKEREFVAAITTSGGSTYYADSVKGRFSISRDNAKNTVYLEMYSLKPEVTAVYYCAAVWWKSFQGSSYRMNYWGQGTQVTVSS | high polyreactivity
34 | QVQLVESGGGLVQAGGSLRLSCAASGRTFWRYVMGWYRQAPGKERELVASITRSGGTTNYADSVKGRFTISRDIAKNTVYLQMNSLKPEDTAVYYCNARTVYSWSREYNYWGQGTQVTVSS | high polyreactivity
35 | QVQLVESVGGLVQAGGSLRLSCAASGFTFRYYAMGSYRQAPGKERELVAAISRTGRTYYADSVKGRFTISRDNAKNTVYLQMNSLKPEDTAVYYCAADPPGYVFGKRYYWGHGTQVTVSS | high polyreactivity
36 | QVQLVESGGGLVQAGGSLRLSCAASGIIFVYYDMGWYRQAPGKERELVASISRGGSTYYADSVKGRFTISRDNAKNTVYLQMNSLKPEDTAVYYCAAVPSYLGYWGQGTQVTVSS | high polyreactivity
37 | QVQLVESGGGLVQAGGSLRLSCAASGFTITHYAMGWYRQAPGKERELVAAISTSGGSTYYADSVKGRFTISRDNAKNTVYLQMNSLKPEDTAVYYCAARRDGWVQWGYYYWGQGTQVTVSS | low polyreactivity
38 | QVQLVDSGGGLVQAGGSLRLSCAASGIIFRAYAMGWSRAAPGKERELVAAISRRGSTTYYADSVKGRFTISRDNAKNTVYLQMNSLKPEDTAVYFCAADYAGPTGFDYWGQGTQVTVSS | high polyreactivity
39 | QVQLVESGGGLVQAGGSLRLSCAASGFTLSSNPMGWNRQEPGKETELVAAISFNSTSTYYADSVKGRFTISRDNAKNTVYLQMKSLNPEDTAVYYCAADVPRVQSEPEYDYWGQGTQVTVSS | low polyreactivity
40 | QVQLVESGGCLVQAGGSLRLSCAGSGSIFDGYAMGWYRQAPGKERELVADINNGADTYYADSVKGRFTISRDKAKNTVYLQMNTLKTEDTAVYYCAARYGTDTDIQNVARYDYWGQGTQVTVSS | low polyreactivity
41 | QVQLVESGGGLVQAGGSLRLSCAASGSTFRTYAMGWYRQAPGKERELVADITWRGGSTYYADSVKGRFTISRDNAKNTVYLQMNSLKPEDTAVYYCATDRGPEVVLYDYWGQGTQVTVSS | low polyreactivity
42 | QVQLVESGGGLVQAGGSLRLSCAASGSTFINYAMGWYRQAPGKERELVATISSNGGSTYYADSVKGRFTISRDNAKNTVYLQMNRLKPEDTAVYYCAADGKQYGFYYWGQGTQVTVSS | low polyreactivity
43 | QVQLVESGVGLVQAGGSLRLSCAASGSIFPPYAMGWYRQAPGKERELVAAITSGGRTNYADSVKGRFTISRDNAKNTVYLQMNSLKPEDTEVYYCAQTGSYAKIRPNNDYWGQGTQVTVSS | low polyreactivity
